Assay results from patent publication US20200155648A1 (CHILDREN S MEDICAL CENTER, published 2020).

Target: T1, rhVEGFR1-Fc (R&D Systems, Minneapolis, Minn.) (human, UniProt P17948-2 27-687, limits assumed)
T1 construct: It was captured on plates by an anti-Fc antibody; also called Flt-1; not shown: Fc part of the bought fusion
Assay: cell-free plate assay: rhVEGFR1-Fc captured by anti-Fc, VEGF165 titrated, Kd from the double reciprocal plot; heparin level not given
Procedure: Plates were washed five times with wash buffer (0.05% Tween-20 in PBS, pH 7.2-7.4) the next morning and blocked with blocking buffer (2% bovine serum albumin and 0.05% Tween-20 in PBS) for 1 hour at 37° C. […] Substrate reaction was stopped with 2N sulfuric acid and the signal was visualized with a FLUOstar Omega microplate reader (BMG Labtech, Cary, N.C.) at 450 nm.
All other outcomes were analyzed with analysis of variance.

T1 sequence (P17948 other isoform, or with tags, fused parts or gaps limits assumed): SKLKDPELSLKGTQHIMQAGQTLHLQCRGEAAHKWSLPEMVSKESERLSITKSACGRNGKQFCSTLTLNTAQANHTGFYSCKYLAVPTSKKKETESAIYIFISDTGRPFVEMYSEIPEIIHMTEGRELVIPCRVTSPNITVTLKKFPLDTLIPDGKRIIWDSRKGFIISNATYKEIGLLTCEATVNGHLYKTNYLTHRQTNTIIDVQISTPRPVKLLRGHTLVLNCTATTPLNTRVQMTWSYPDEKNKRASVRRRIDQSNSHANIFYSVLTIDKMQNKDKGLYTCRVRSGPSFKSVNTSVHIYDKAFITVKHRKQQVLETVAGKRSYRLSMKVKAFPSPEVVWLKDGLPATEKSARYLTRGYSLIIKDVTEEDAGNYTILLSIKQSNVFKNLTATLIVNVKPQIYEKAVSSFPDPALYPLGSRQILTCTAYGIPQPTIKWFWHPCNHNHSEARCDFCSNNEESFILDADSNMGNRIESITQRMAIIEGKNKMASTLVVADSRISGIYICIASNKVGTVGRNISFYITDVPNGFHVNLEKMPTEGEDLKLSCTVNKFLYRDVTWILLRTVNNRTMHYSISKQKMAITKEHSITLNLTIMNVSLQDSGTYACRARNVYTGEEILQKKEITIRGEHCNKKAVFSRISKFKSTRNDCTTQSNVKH

- Kd: 8.14 ng/mL
B1: rhVEGF-165 (Shire, Lexington, Mass.) (ligand)
chain: APMAEGGGQNHHEVVKFMDVYQRSYCHPIETLVDIFQEYPDEIEYIFKPSCVPLMRCGGCCNDEGLECVPTEESNITMQIMRIKPHQGQHIGEMSFLQHNKCECRPKKDRARQENPCGPCSERRKHLFVQDPQTCKCSCKNTDSRCKARQLELNERTCRCDKPRR
